The target in test [1] is T1, epidermal growth factor receptor (EGFR) (UniProt P00533 25-645, limits assumed). The test can be described thus: SPR. A general note: In SPR one partner is held on a chip, and binding of the other changes the refractive index at the surface.
The target of test [2] is T1, epidermal growth factor receptor (EGFR). The test can be described thus: SPR; against HLX05.
For test [3] the target is unchanged. The test can be described thus: kinetics, method not named for Table 6 (presumably SPR).
Test [4] has the same target. The test can be described thus: kinetics, method not named for Table 6 (presumably SPR); against HLX05.
The target in test [5] is T2, EGFR antigen produced in-house (UniProt P00533 25-645, limits assumed).
T2 construct: May be the same preparation as m1
Briefly: off-rate ELISA in wells coated with EGFR antigen produced in-house, A405. The source says:
The 1-26 heavy chain was selected and used as the basis for generating CDR-H2 libraries for deletion of a glycosylation site. CDR-H2 nucleic acid libraries were generated via PCR, cloned into a phage display vector, and transformed into E. coli to produce a library of phages.
(In general: In an ELISA, binding on a coated surface is turned into a signal by an enzyme label.)

Test [6] concerns the target T1, epidermal growth factor receptor (EGFR). Briefly: kinetics of Table 6 (method not named, presumably SPR); lower end tied to 1-26/3-67 by Table 6 (2.2).
The next test deals with T3, EGFR-AP fusion protein (UniProt P00533 25-645).
T3 construct: treated as one molecule; also called Alkaline phosphatase-conjugated EGFR; not shown: alkaline phosphatase (AP) part
Briefly: competitive ELISA: antibody pre-mixed with biotinylated HLX05, EGFR-AP added, capture on avidin wells, pNPP, A405; competitor: biotinylated HLX05. As for the experimental part: Alkaline phosphatase-conjugated EGFR was then added to the pre-mixed solution and pre-incubated for 1 hour at room temperature. The preincubation mix was then added to mictotiter wells coated with avidin. Following a one-hour incubation, all wells were washed with PBST, and pNPP was added to each well. Following a second incubation at 37° C., the reaction was stopped.

Usually Kd stands for a measure of binding affinity in units of concentration. Higher therefore signals lower affinity. Usually koff stands for the first-order rate constant of dissociation. The low end stands for a long-lived complex, the high end for a short-lived complex. A word on the kon: it is a measure of how fast the partners come together. The low end stands for slow association, the high end for fast association. For orientation: EC50 (read off the curve) means the concentration giving half of the maximal effect. A higher EC50 (read off the curve) goes with weaker potency.

B1: 1-26/3-67 (LC/HC) (antibody, V domains shown)
VH: EVQLVESGGGLVQPGGSLRLSCAASGFSLTNYGVHWVRQAPGKGLEWLGVIWSGGNTDYGNEFTSRFTISRDNAKNSLYLQMNSLRAEDTAVYYCARALDYYDYEFAYWGQGTMVTVSS
VL: EIVLTQSPATLSLSPGERATLSCRASQSIGTNIHWYQQKPGQAPRLLIKYASESISGIPARFSGSGSGTDFTLTISSLEPEDFAVYYCQQNNNWPTSFGGGTKVEIK
notes: also called HLX07; HLX07 1-26/3-67
For B1, in test [1], binding was put at a Kd of 109 pM, the koff stood at 0.000553 s⁻¹ and the kon turned out to be 5.09e+06 M⁻¹ s⁻¹. Moreover, the “Fold difference in KD” value in test [2] was determined as 1.2 fold. Further, in test [3], binding was characterised by a dissociation constant (Kd) of 111 pM, the off-rate constant (koff) is 0.000995 s⁻¹ and the kon is 8.93e+06 M⁻¹ s⁻¹. Moreover, the “Fold difference in KD” value in test [4] came to 2.2 fold. The “EC50 (read off the curve)” value in test [5] is around 0.3 µg/mL. Also, in test [6], the “fold higher affinity than HLX05” value fell in the range of 2 to 3 fold. Also, the “IC50 (read off the curve)” value in the test with EGFR-AP fusion protein is around 4 µg/mL.

(Values after patent publication US20170218073A1 (HENLIX BIOTECH, published 2017).)
